This is an account of results in article PMC3177193 (Nucleic Acids Research, 2011).

Test [1] addresses T1, Arabidopsis SERRATE core (SE core, residues 194-543), hexahistidine-tagged (Arabidopsis thaliana, UniProt Q9ZVD0 194-543).
T1 sequence (looked up): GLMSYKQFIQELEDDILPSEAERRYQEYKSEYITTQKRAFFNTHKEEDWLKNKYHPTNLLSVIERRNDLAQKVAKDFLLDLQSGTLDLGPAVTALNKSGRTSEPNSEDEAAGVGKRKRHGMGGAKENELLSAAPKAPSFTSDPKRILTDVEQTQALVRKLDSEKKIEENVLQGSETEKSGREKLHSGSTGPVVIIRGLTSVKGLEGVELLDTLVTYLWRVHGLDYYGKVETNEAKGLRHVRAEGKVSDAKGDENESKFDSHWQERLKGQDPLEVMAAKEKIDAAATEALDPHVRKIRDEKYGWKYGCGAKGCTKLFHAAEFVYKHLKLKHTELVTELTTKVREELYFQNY
Description: pull-down.

For test [2], the target named is T2, GST-fused SE Middle domain (SE-Mid, residues 248-470) (Arabidopsis thaliana, UniProt Q9ZVD0 248-470).
T2 sequence (looked up): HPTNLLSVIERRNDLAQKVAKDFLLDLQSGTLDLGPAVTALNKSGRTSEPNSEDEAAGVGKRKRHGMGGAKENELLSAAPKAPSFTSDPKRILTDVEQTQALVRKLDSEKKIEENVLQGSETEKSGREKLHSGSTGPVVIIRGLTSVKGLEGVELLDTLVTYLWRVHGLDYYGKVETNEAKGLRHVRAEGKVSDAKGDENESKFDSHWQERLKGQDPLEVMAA
Description: pull-down.

B1: GST-fused HYL1 RBD2 (residues 100-172) (domain or fragment, Arabidopsis thaliana, UniProt O04492 100-172, looked up)
chain: GLCKNLLQEYAQKMNYAIPLYQCQKVETLGRVTQFTCTVEIGGIKYTGAATRTKKDAEISAGRTALLAIQSDT
As for B1, in test [1], the binding result was “binds”.

B2: Non-tagged HYL1 RBD2 (residues 100-172) (domain or fragment, Arabidopsis thaliana, UniProt O04492 100-172, looked up)
chain: GLCKNLLQEYAQKMNYAIPLYQCQKVETLGRVTQFTCTVEIGGIKYTGAATRTKKDAEISAGRTALLAIQSDT
On to B2, for which the binding result in test [2] was “binds”.

B3: GST-fused HYL1 RBD1+2 (residues 15-172) (domain or fragment, Arabidopsis thaliana, UniProt O04492 15-172, looked up)
chain: VFKSRLQEYAQKYKLPTPVYEIVKEGPSHKSLFQSTVILDGVRYNSLPGFFNRKAAEQSAAEVALRELAKSSELSQCVSQPVHETGLCKNLLQEYAQKMNYAIPLYQCQKVETLGRVTQFTCTVEIGGIKYTGAATRTKKDAEISAGRTALLAIQSDT
With B3, the binding result in test [1] is recorded as “binds”.
